Results published in patent publication US20120321591A1 (COVX TECHNOLOGIES IRELAND, published 2012).
Where no end group is shown, it is not given here. [ ]: non-standard residue; d: D form. Phe(4-NO2) = N[C@@H](Cc1ccc([N+](=O)[O-])cc1)C(=O)O; Phe(4-COOH) = N[C@@H](Cc1ccc(C(=O)O)cc1)C(=O)O; Bpa = N[C@@H](Cc1ccc(C(=O)c2ccccc2)cc1)C(=O)O; Hyp = O=C(O)[C@@H]1C[C@@H](O)CN1; 0P linker = not defined here; 4P linker = not defined here; ThA = not defined here

B1: Compound 4034, peptide plus linker (T) (peptide)
peptide: QXYQXLDELDKTLYDQFMLQQG
modifications: not fully specified; N-terminal acyl cap; C-terminal amino cap; Kac 2; D(HP) 5; 0P linker on K11
notes: also called 4034 T
B2: Compound 4048, peptide plus linker (T) (peptide)
peptide: QK(Ac)YQPLDEK(Ac)DK(0P linker)TL[Phe(4-NO2)]DQFMLQQG-NH2
modifications: reading uncertain; also: N-terminal acyl cap, acyl not given here, printed as Q(Kac)Y QPL DE(Kac) DK(0P)T L(NO2)FD QFM LQQ G
notes: also called 4048 T
B3: Compound 4055, peptide plus linker (T) (peptide)
peptide: QXYQPLDELDXTLYDQFMLQQG
modifications: not fully specified; N-terminal acyl cap; C-terminal amino cap; Kac 2; 0P linker on Dap 11
notes: also called 4055 T
B4: Compound 4025, peptide plus linker (T) (peptide)
peptide: QNYQPLDELDK(4P linker)TLYDQFMLQQG-NH2
modifications: reading uncertain; also: N-terminal acyl cap, printed as QNY QPL DEL DK(4P)T LYD QFM LQQ G
notes: also called 4025 T
B5: Compound 4046, peptide plus linker (T) (peptide)
peptide: QK(Ac)YQ[Hyp]LDE[ThA]DK(0P linker)TL[Bpa]DQFMLQQG-NH2
modifications: not fully specified; reading uncertain; also: N-terminal acyl cap, acyl not given here
B6: Compound 4045, peptide plus linker (T) (peptide)
peptide: QK(Ac)YQ[Hyp]LDE[ThA]DK(0P linker)TL[Phe(4-NO2)]DQFMLQQG-NH2
modifications: not fully specified; reading uncertain; also: N-terminal acyl cap, acyl not given here
notes: also called 4045 T
B7: Compound 4047, peptide plus linker (T) (peptide)
peptide: QK(Ac)YQ[Hyp]LDE[ThA]DK(0P linker)TL[Phe(4-COOH)]DQFMLQQG-NH2
modifications: not fully specified; reading uncertain; also: N-terminal acyl cap, acyl not given here
notes: also called 4047 T
B8: Compound 4056, peptide plus linker (T) (peptide)
peptide: QNYQPLDELDKTL[Bpa]DQFMLQQG-NH2
modifications: not fully specified (residue 11, N-terminus); also: N-terminal acyl cap, acyl not given here
notes: also called 4056 T

target: T1, human angiopoietin-2 protein (human, UniProt O15123 19-496); assay: competitive ELISA: Tie-2-Fc binding to coated Ang-2; T
T1 construct: also called Ang-2; Ang2
T1 sequence (looked up): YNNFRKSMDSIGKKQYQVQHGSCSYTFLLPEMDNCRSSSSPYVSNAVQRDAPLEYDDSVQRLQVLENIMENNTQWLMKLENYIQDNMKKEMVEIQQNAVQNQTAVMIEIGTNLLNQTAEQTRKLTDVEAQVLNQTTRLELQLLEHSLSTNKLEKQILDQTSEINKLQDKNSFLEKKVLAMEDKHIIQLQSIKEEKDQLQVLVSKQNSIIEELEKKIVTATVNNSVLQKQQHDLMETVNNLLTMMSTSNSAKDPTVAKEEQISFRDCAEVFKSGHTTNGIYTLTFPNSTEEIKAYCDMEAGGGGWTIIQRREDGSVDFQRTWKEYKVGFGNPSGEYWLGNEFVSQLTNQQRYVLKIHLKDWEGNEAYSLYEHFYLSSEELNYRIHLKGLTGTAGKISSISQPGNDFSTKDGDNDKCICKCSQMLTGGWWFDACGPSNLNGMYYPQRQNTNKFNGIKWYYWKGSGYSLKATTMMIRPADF
Description: Plates were washed three times with washing buffer (0.1% Tween 20, PBS, pH 7.4) and blocked with Superblock (Scytek), […] at room temperature (“RT”) for 1 hour. […] Plates were washed 3 times with washing buffer. […] Following incubation, 50 ul of 1:5,000 dilution of goat anti-mouse IgG-HRP in Superblock was then added and incubated at RT for one hour. After washing 3 times, […] was added, and incubated for 3-5 minutes. Color development was monitored and stopped with 25 μl of 2 M H₂SO₄. OD450 nm with a correction wavelength of 540 nm was measured.

QXYQPLDELDKTXYDQFMLQQG (N-terminal acyl cap; C-terminal amino cap; Kac 2; 0P linker on K11; HL 13, also called 4042 T) [Compound 4042, peptide plus linker (T)] was tested. Which IC50 did it give?
Its IC50 is 1340 nM.

With B1 as the binder, how does the IC50 read?
Its IC50 is 224 nM.

How did the IC50 turn out when XQXYQPLDELDKTLYDQFMLQQG (DCB at N-terminus; C-terminal amino cap; Kac 2; 0P linker on K11, also called 4049 T) [Compound 4049, peptide plus linker (T)] was run?
The IC50 was 28.4 nM.

For QXYQPLDELDXTLYDQFMLQQG (N-terminal acyl cap; C-terminal amino cap; Kac 2; 0P linker on Dab 11, also called 4054 T) [Compound 4054, peptide plus linker (T)], which IC50 is on record?
The IC50 was 292 nM.

With QXYQPLDEKDXTLYDQFMLQQG (N-terminal acyl cap; C-terminal amino cap; Kac 2; 0P linker on K9; Kac 11, also called 4030 T) [Compound 4030, peptide plus linker (T)] as the binder, how does the IC50 read?
Its IC50 is 279 nM.

For B2, which IC50 is on record?
Its IC50 is 82.4 nM.

With QXYQPLDELDKTLYDQFMLQQG (N-terminal acyl cap; C-terminal amino cap; Kac 2; 0P linker on K11, also called 4029 T) [Compound 4029, peptide plus linker (T)] as the binder, how does the IC50 read?
Its IC50 is 83.3 nM.

B3 was tested. Which IC50 did it give?
Its IC50 is 598 nM.

B4 was tested. Which IC50 did it give?
The IC50 was 300 nM.

With B5 as the binder, how does the IC50 read?
Its IC50 is 82.7 nM.

For QXYQPLDELDKTXYDQFMLQQG (N-terminal acyl cap; C-terminal amino cap; Kac 2; 0P linker on K11; HF 13, also called 4039 T) [Compound 4039, peptide plus linker (T)], which IC50 is on record?
The IC50 was 4890 nM.

For B6, which IC50 is on record?
Its IC50 is 24.7 nM.

How did the IC50 turn out when XQXYQPLDELDKTLYDQFMLQQG (Amido 2-PEG at N-terminus; C-terminal amino cap; Kac 2; 0P linker on K11, also called 4052 T) [Compound 4052, peptide plus linker (T)] was run?
The IC50 was 134 nM.

With B7 as the binder, how does the IC50 read?
The IC50 was 43.3 nM.

XQXYQPLDELDKTLYDQFMLQQG (DFB at N-terminus; C-terminal amino cap; Kac 2; 0P linker on K11) [Compound 4050, peptide plus linker (T)] was tested. Which IC50 did it give?
Its IC50 is 33 nM.

QXYQXLDELDKTLYDQFMLQQG (N-terminal acyl cap; C-terminal amino cap; Kac 2; HP 5; 0P linker on K11, also called 4035 T) [Compound 4035, peptide plus linker (T)] was tested. Which IC50 did it give?
The IC50 was 121 nM.

For XQXYQPLDELDKTLYDQFMLQQG (PyC at N-terminus; C-terminal amino cap; Kac 2; 0P linker on K11, also called 4051 T) [Compound 4051, peptide plus linker (T)], which IC50 is on record?
The IC50 was 14.3 nM.

For B8, which IC50 is on record?
The IC50 was 92.2 nM.

How did the IC50 turn out when QXYQPLDELDKTXYDQFMLQQG (N-terminal acyl cap; C-terminal amino cap; Kac 2; 0P linker on K11; Nva 13, also called 4041 T) [Compound 4041, peptide plus linker (T)] was run?
Its IC50 is 1340 nM.
